First the molecules themselves.
T1: human TIM-3 on CHOK1 stable cell line (CHOK1-hTIM-3) (human, UniProt Q8TDQ0 22-301)
T1 sequence: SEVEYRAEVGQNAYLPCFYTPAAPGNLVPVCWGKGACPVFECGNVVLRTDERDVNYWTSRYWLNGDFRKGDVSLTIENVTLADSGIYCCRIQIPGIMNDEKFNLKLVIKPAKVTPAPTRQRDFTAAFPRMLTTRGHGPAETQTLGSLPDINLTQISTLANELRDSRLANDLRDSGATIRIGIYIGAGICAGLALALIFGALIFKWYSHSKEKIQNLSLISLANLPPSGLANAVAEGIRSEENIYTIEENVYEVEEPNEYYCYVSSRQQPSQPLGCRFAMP

T2: monkey TIM-3 protein with hFc tag (cTIM-3-hFc protein) (monkey; human)
T2 construct: Made in HEK293 cells; also called monkey TIM-3 extracellular domain protein; not shown: human IgG Fc fragment (hFc) of the pCpC vector
T2 chain: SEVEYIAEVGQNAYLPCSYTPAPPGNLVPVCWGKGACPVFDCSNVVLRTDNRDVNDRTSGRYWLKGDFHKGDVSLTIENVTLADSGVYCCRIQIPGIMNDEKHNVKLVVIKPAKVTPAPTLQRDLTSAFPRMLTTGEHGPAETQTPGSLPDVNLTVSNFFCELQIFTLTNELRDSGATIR

T3: human TIM-3 extracellular domain protein with hFc tag (hTIM-3-hFc) (human, UniProt Q8TDQ0 22-200)
T3 construct: not shown: human IgG Fc fragment (hFc) of the pCpC vector
T3 sequence: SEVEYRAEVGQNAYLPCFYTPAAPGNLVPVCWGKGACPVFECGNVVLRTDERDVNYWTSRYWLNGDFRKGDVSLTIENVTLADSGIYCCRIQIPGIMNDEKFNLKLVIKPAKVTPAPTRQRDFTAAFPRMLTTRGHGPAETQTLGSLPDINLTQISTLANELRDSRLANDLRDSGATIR

T4: monkey TIM-3 on CHOK1 stable cell line (CHOK1-cTIM-3) (monkey)
T4 chain: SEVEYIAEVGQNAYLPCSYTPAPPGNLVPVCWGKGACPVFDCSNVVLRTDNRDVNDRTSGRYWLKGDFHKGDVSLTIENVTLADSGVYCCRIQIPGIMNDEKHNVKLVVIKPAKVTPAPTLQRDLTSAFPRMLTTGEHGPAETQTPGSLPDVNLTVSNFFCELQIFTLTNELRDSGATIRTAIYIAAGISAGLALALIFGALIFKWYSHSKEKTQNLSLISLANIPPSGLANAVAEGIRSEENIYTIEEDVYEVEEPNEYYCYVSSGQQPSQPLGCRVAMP

T5: murine TIM-3 protein with hFc tag (mTIM-3-hFc protein) (mouse; human, UniProt Q8VIM0 29-191)
T5 construct: Made in HEK293 cells; also called mouse TIM-3 extracellular domain protein; not shown: human IgG Fc fragment (hFc) of the pCpC vector
T5 chain: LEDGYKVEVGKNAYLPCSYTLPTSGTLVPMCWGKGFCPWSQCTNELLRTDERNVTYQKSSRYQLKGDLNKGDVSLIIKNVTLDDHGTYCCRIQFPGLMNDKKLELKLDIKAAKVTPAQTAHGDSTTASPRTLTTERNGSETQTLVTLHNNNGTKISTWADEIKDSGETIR

T6: murine TIM-3 extracellular domain protein with hFc tag (mTIM-3-hFc) (mouse, UniProt Q8VIM0 29-191)
T6 construct: also called mouse TIM-3 extracellular domain protein; not shown: human IgG Fc fragment (hFc) of the pCpC vector
T6 chain: T5 chain

B1: 57F4E5 fully human TIM-3 antibody (human IgG4, kappa) (antibody, V domains shown)
VH: EVQLVESGGGLVQPGGSLRLSCAASGFTFSSYWMSWVRQAPGKGLEWVANIKQDGSEKYYVDSVKGRFTISRDSAKNSLYLQMNSLRAEDTAMYFCARDSNFFDYWGQGTLVTVSS
VL: ETVMTQSPATLSVSPGERATLSCRASQSVSSNLAWYQRKPGQAPRLLIYFSSTRATGIPARFSGSGSGTEFTLTISSLQSEDFAVYYCQQYNNWPLTFGGGTKVEIK
B2: 134H3G6 fully human TIM-3 antibody (human IgG4, kappa) (antibody, V domains shown)
VH: EVQLVESGGGLVQPGGSLRLSCAASGFTFSNSWMTWVRQAPGKGLEWVANIKQAGTEKYYVDSVKGRFTISRDNAKNSLYLQMNSLRAEDTAVYYCNSGSNYFDYWGQGTLVTVSS
VL: B1 VL with T2I, S26R, S28N, V29F, S30Y, R38Q, F50G, S51A
B3: 215A8F2 fully human TIM-3 antibody (human IgG4, kappa) (antibody, V domains shown)
VH: QVQLQQWGAGLLKPSETLSLTCTVYGGSFSGYYWNWIRQPPGKGLEWLGEINHSGSTNYNPSLKRRVTISVDTSKNQFSLKLSSVTAADTAVYYCARVYYYGPFDFWGQGTLVTVSS
VL: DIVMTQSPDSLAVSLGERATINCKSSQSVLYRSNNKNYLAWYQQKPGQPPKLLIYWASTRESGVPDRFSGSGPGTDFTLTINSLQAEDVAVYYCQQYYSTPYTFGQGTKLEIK
B4: 7A4F10 fully human TIM-3 antibody (human IgG4, kappa) (antibody, V domains shown)
VH: EVQLLESGGGLVQPGGSLRLSCAASGFTFRTHLISWVRQAPGKGLEWVAAITGSGGSTYYADSVKGRFIISRDNSKNTLFLQMNSLRAEDTAVYYCAKDGGSGSYDDFWGQGTLVTVSS
VL: ETVLTQSPVTLSLSPGERATLSCRASQSVGSYLAWYQQKPGQAPRLLIYDASNRATGIPARFSGSGSGTDFTLTISSLEPEDFAVYYCQQRSNWPPTFGQGTKVEIK
B5: 39E5H1 (TIM-3 antibody purified from hybridoma, chimeric antibody of Example 2) (antibody, V domains shown)
VH: EVQLVESGGGLVQPGGSLRLSCAASGFTFSSYWMSWVRQAPGKGLEWVANIKRGGSERYYVDSVKGRFTISGDNAKNSVYLQMNSLRAEDTAVYYCARGSNWFDPWGQGTLVTVSS
VL: B1 VL with T10I, S30Y, R38Q, P40L, F50D, S51A, L96I, G100Q, K103R, V104L
notes: From hybridoma of Harbour H2L2 transgenic mice: human variable regions, rat constant regions
B6: 57F4E5 (TIM-3 antibody purified from hybridoma, chimeric antibody of Example 2) (antibody, V domains shown)
VH: B1 VH
VL: B1 VL
notes: as for B5
B7: 18D2H2 (TIM-3 antibody purified from hybridoma, chimeric antibody of Example 2) (antibody, V domains shown)
VH: EVQLVESGGDLVQPGGSLRLSCAASGFTFSTYWMTWVRQAPGRGLEWVANIKQDGSAKYYVDSVKGRFTLSRDDAKNSLYLQMNSLRAEDTAVYYCARGSNWFDYWGQGTLVTVSS
VL: B1 VL with S26N, S28N, S30Y, R38Q, F50D, S51A, I58F
notes: as for B5
B8: 134H3G6 (TIM-3 antibody purified from hybridoma, chimeric antibody of Example 2) (antibody, V domains shown)
VH: B2 VH
VL: B1 VL with T2I, S26R, S28N, V29F, S30Y, R38Q, F50G, S51A
notes: as for B5
B9: 215A8F2 (TIM-3 antibody purified from hybridoma, chimeric antibody of Example 2) (antibody, V domains shown)
VH: B3 VH
VL: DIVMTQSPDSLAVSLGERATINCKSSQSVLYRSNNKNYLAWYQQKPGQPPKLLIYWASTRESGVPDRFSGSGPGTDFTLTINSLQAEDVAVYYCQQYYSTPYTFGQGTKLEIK
notes: as for B5
B10: 7A4F10 (TIM-3 antibody purified from hybridoma, chimeric antibody of Example 2) (antibody, V domains shown)
VH: B4 VH
VL: B4 VL
notes: as for B5
B11: 34B6D8 (TIM-3 antibody purified from hybridoma, chimeric antibody of Example 2) (antibody, V domains shown)
VH: B5 VH with S31T, S35T, G44R, R53Q, S56G, E57D, R58K, G72T, V79L
VL: EIVMTQSPATLSMSPGERATLSCRASQSVYDNLAWYQQKPGQAPRLLIYGASTRATGIPARFSGSGSGTEFTLTISSLQSEDFALYYCQQYTHWPITFGQGTRLEIK
notes: as for B5

Where a chain is given by its changes, count along the chain named.

One assay deals with T1, human TIM-3 on CHOK1 stable cell line …. Nature of the assay: FACS, CHOK1-hTIM-3 cells, 8 nM antibody.
In turn, B1 showed a Mean fluorescence intensity of 154.

B2 registered a Mean fluorescence intensity of 229.

Take B3: the Mean fluorescence intensity turned out to be 298.

On to B4, for which the Mean fluorescence intensity was found to be 308.

For the next assay, the target named is T2, monkey TIM-3 protein with hFc tag …. The assay can be described thus: ELISA, coated cTIM-3-hFc; antibody 66.667 nM. An excerpt:
(§1) The amino acid sequence 22-200 of the extracellular domain of the human TIM-3 protein described in the step of Example 1 (as shown in SEQ ID NO. 71 in the sequence listing) was cloned into a pCpC vector having a human IgG Fc fragment (hFc), and transfected into HEK293 cells. The cell culture medium was collected, and purified to obtain the human TIM-3 protein with hFc tag (herein referred to as hTIM-3-hFc protein). The amino acid sequence 22-201 of the extracellular domain of the monkey TIM-3 protein (as shown in SEQ ID NO. 72 in the sequence listing) was cloned into a pCpC vector having a human IgG Fc fragment (hFc), and transfected into HEK293 cells. The cell culture medium was collected, and purified to obtain the monkey TIM-3 protein with hFc tag (herein referred to as cTIM-3-hFc protein). […] The cell culture medium was collected, and purified to obtain the murine TIM-3 protein with hFc tag (herein referred to as mTIM-3-hFc protein). Purified human, monkey, and mouse TIM-3 extracellular domain proteins (hTIM-3-hFc, cTIM-3-hFc, and mTIM-3-hFc) were diluted with PBS to a final concentration of 1.0 μg/ml and then added to a 96-well ELISA plate with 100 μl per well. The plate was sealed with plastic film and incubated overnight at 4° C. The plate was washed 4 times with the plate washing solution (PBS+0.01% Tween20) on the next day, and added with the blocking solution (PBS+0.01% Tween20+1% BSA) and sealed at room temperature for 1-2 hours. The blocking solution was poured out. 50-100 μl of the antibody sample to be tested was added to each well. The plate was incubated at 37° C. for 1-2 hours, and washed 2-3 times with plate washing solution (PBS+0. 01% Tween20). HRP (horseradish peroxidase) labeled secondary antibody was added. The plate was incubated at 37° C. for 1-2 hours, and washed 2-3 times with plate washing solution (PBS+0. 01% Tween20). […] of TMB substrate was added to each well. After incubated at room temperature for 15-30 minutes, the plate was added with […] stop solution (1.0N HCl) to each well. An ELISA plate reader (TiterMax 384plus, Molecular Device) was used to read the A450 nm value.
A general note: In an ELISA, binding on a coated surface is turned into a signal by an enzyme label.
B5: the OD450 is 3.47.

Regarding B6, the OD450 came to 3.47.

B7 returned an OD450 of 3.44.

Regarding B8, the OD450 worked out at 3.43.

Consider B9, for which the OD450 came out at 3.49.

In turn, B10 had an OD450 of 3.46.

In the case of B11, the OD450 amounted to 3.52.

In a further assay the target is T3, human TIM-3 extracellular domain …. The assay can be described thus: ELISA, coated human TIM-3 ECD protein, 0.0067 nM antibody.
As for B1, the OD450 was found to be 0.23.

Regarding B2, the OD450 is 0.27.

B3 showed an OD450 of 0.27.

In the case of B4, the OD450 amounted to 0.32.

In another assay the target is T1, human TIM-3 on CHOK1 stable cell line …. The assay can be described thus: FACS, CHOK1-hTIM-3 cells, 0 nM antibody. Background: A flow cytometer gives signals particle by particle.
Turning to B1, the Mean fluorescence intensity amounted to 2.9.

As to B2, the Mean fluorescence intensity was 2.8.

In the case of B3, the Mean fluorescence intensity was 2.9.

Turning to B4, the Mean fluorescence intensity turned out to be 2.8.

A further assay has the same target. The assay can be described thus: FACS, CHOK1-hTIM-3 cells, 0.064 nM antibody.
Take B1: the Mean fluorescence intensity is 23.7.

Take B2: the Mean fluorescence intensity worked out at 34.5.

B3: the Mean fluorescence intensity was 20.5.

B4: the Mean fluorescence intensity turned out to be 28.8.

A further assay addresses T4, monkey TIM-3 on CHOK1 stable cell line …. Nature of the assay: FACS, CHOK1-cTIM-3 cells, 1.6 nM antibody.
With B1, the Mean fluorescence intensity worked out at 207.

B2 returned a Mean fluorescence intensity of 326.

For the molecule B3, the Mean fluorescence intensity stood at 252.

Consider B4, for which the Mean fluorescence intensity came to 177.

A further assay addresses T5, murine TIM-3 protein with hFc tag …. The assay can be described thus: ELISA, coated mTIM-3-hFc; antibody 0.0067 nM.
Description: as §1
B5 came in with an OD450 of 0.64.

As for B6, the OD450 turned out to be 0.68.

Molecule B7 returned an OD450 of 0.63.

In turn, B8 yielded an OD450 of 0.64.

Turning to B9, the OD450 came to 0.64.

In turn, B10 registered an OD450 of 0.64.

Turning to B11, the OD450 was 0.65.

The target of a further assay is T6, murine TIM-3 extracellular domain …. The assay can be described thus: ELISA, coated mouse TIM-3 ECD protein, 0.0067 nM antibody.
For the molecule B1, the OD450 is 0.23.

Regarding B2, the OD450 was found to be 0.22.

B3 showed an OD450 of 0.22.

Molecule B4 showed an OD450 of 0.23.

For the origin of these results see patent publication US20220033501A1 (SHANGHAI PHARMAEXPLORER, published 2022).
